The source of these data is patent US20210388103A1 (Takeda / Millennium, published 2021).

For assay [1], the target named is T1, cynomolgus CD38 (cynomolgus monkey, UniProt Q5VAN0 1-301).
T1 construct: In the assays: on CHO-K1 cells transfected with full-length cynomolgus CD38 cDNA, on monkey blood lymphocytes and tissue sections; also called cyno CD38; monkey CD38
Briefly: binding to monkey lymphocytes; method not described; monkey lymphocytes, not CHO cells.

Assay [2] addresses T1, cynomolgus CD38. Briefly: flow cytometry on CHO cells expressing cynomolgus monkey CD38; CHO cells expressing monkey CD38. Background: In flow cytometry, cells or beads pass a laser one at a time.
A further assay concerns the target T2, human CD38 (human, UniProt P28907 1-300).
T2 construct: In the assays: on CHO-K1 cells transfected with full-length human CD38 cDNA, on human blood lymphocytes, RBCs, cell lines and tissue sections; also called human CD38 antigen
The assay is described as follows: binding to CHO cells expressing human CD38; CHO cells expressing human CD38.

The target of assay [3] is T1, cynomolgus CD38. The assay is described as follows: cell-based or functional assay.

T1 sequence (Q5VAN0 whole entry): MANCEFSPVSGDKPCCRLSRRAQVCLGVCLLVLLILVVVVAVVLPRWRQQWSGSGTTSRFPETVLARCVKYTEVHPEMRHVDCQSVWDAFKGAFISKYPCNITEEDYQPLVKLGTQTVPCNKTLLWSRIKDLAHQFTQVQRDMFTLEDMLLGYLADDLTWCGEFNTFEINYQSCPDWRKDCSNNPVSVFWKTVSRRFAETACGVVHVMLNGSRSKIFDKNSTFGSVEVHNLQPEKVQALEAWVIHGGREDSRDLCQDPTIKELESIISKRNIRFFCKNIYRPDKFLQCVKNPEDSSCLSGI

B1: AB79 (antibody, human IgG1, lambda, V domains shown)
VH: EVQLLESGGGLVQPGGSLRLSCAASGFTFDDYGMSWVRQAPGKGLEWVSDISWNGGKTHYVDSVKGQFTISRDNSKNTLYLQMNSLRAEDTAVYYCARGSLFHDSSGFYFGHWGQGTLVTVSS
VL: QSVLTQPPSASGTPGQRVTISCSGSSSNIGDNYVSWYQQLPGTAPKLLIYRDSQRPSGVPDRFSGSKSGTSASLAISGLRSEDEADYYCQSYDSSLSGSVFGGGTKLTVLG
notes: Fully human IgG1 monoclonal antibody; Used unlabelled, Alexa Fluor conjugated or biotinylated, depending on the assay; also called TAK 079
Broadly, the Kd is a measure of binding affinity in units of concentration. As a reminder, the EC50 is the concentration needed to bring the measured effect to its halfway point. In the case of B1, the equilibrium dissociation constant (Kd) with cynomolgus CD38 [1] was found to be 4 nM; in the assay with human CD38, 0.7 nM. The same molecule had an EC50 with cynomolgus CD38 [2] of 4.5 nM. The “cytolysis of NK cells in monkey whole blood in vitro, mean EC50” value with cynomolgus CD38 [3] is 29.6 nM.
